Reference: patent US20250361317A1 (Janssen / Centocor, published 2025)

How the values were obtained:
[1] = biological target: T1, T-cell receptor with TRBV19 (Vβ17) beta chain on human T cells (human); test: flow cytometry, percent TRBV19+ of live pan-T cells, Donor 5, 1 hour, 37 °C
T1 construct: whole, on cells; also called Vb17; TRBV19+ T cells

[2] = biological target: T2, human EMR2 (ADGRE2, CD312) on cells (human, UniProt Q9UHX3 24-823); test: flow cytometry, MOLM-13 cells, 1 hour at 37 °C; mean ± SEM
T2 construct: also called huEMR2 full length; Adhesion G protein-coupled receptor E2
T2 sequence: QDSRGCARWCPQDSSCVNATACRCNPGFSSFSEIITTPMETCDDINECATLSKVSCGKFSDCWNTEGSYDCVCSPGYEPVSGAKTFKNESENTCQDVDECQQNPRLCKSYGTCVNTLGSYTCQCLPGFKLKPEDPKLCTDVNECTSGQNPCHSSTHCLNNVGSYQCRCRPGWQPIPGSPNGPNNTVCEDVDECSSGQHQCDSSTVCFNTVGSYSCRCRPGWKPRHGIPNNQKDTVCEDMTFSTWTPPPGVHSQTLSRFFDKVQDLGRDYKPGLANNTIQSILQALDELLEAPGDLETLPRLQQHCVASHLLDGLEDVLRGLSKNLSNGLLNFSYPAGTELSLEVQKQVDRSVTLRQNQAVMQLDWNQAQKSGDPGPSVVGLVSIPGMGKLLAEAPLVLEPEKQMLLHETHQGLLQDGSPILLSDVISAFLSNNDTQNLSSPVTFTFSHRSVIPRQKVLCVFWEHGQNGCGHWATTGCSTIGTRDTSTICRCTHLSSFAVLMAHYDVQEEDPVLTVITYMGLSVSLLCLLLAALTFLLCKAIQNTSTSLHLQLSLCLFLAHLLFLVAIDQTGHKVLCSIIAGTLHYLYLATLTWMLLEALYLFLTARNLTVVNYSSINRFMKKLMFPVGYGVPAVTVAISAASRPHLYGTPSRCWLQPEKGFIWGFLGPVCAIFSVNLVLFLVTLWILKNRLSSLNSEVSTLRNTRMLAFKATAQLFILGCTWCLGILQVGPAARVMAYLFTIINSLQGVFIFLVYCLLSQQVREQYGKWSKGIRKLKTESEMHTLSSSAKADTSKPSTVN
Method: (§1) After secondary detection with AF647-labeled material, the MFI signal was analyzed to generate an EC50 value. Curves are representative of 3 independent experiments.

[3] = biological target: T3, EMR2W4, huEMR2 GAIN domain + GPS, D261-T540, with C-terminal Avi/6x His tag (human); test: SPR, EMR2 arm, forced degradation study: pH 5.0
T3 construct: also called Human EMR2 GAIN domain protein
T3 chain: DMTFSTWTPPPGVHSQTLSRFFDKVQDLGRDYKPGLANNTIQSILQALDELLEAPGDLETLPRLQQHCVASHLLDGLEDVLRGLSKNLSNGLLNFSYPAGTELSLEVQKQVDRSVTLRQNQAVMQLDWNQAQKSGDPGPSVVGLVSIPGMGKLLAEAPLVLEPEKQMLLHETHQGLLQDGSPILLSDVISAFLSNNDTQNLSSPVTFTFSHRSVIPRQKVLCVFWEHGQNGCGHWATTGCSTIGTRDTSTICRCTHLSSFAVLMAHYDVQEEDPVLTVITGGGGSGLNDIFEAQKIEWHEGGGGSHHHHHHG

[4] = biological target: T3, EMR2W4, huEMR2 GAIN domain + GPS, …; test: SPR, EMR2 arm, forced degradation study: Physiological
[5] = biological target: T1, T-cell receptor with TRBV19 (Vβ17) beta …; test: flow cytometry, % TRBV19+ T cells of live human pan-T cells, 1 hour at 37 C
[6] = biological target: T2, human EMR2 (ADGRE2, CD312) on cells; test: flow cytometry, median AF647 of live cells, MOLM 13 cells, 1 hour at 37 C
[7] = biological target: T1, T-cell receptor with TRBV19 (Vβ17) beta …; test: flow cytometry, percent TRBV19+ of live pan-T cells, Donor 6, 1 hour, 37 °C
[8] = biological target: T1, T-cell receptor with TRBV19 (Vβ17) beta …; test: flow cytometry, percent TRBV19+ of live pan-T cells, Donor 4, 1 hour, 37 °C
[9] = biological target: T4, FcRn (human) (human, UniProt P55899 24-297; P61769 21-119); test: FcRn binding (human, pH 6)
T4 construct: also called neonatal Fc receptor

[10] = biological target: T2, human EMR2 (ADGRE2, CD312) on cells; test: cell-based or functional assay
[11] = biological target: T1, T-cell receptor with TRBV19 (Vβ17) beta …; test: cell-based or functional assay
[12] = biological target: T2, human EMR2 (ADGRE2, CD312) on cells; test: flow cytometry, OCI-AML3 cells, 1 hour at 37 °C; mean ± SEM
Method: as §1

[13] = biological target: T1, T-cell receptor with TRBV19 (Vβ17) beta …; test: flow cytometry, percent TRBV19+ of live pan-T cells, Donor 3, 1 hour, 37 °C
[14] = biological target: T3, EMR2W4, huEMR2 GAIN domain + GPS, …; test: SPR, row 'SPR (KD) / EMR2' of the Forced Degradation table; first sample batch (in PBS); stress condition of the KD and EMR2 construct not named on the sheet
[15] = biological target: T3, EMR2W4, huEMR2 GAIN domain + GPS, …; test: SPR, EMR2 arm, forced degradation study: Release
[16] = biological target: T2, human EMR2 (ADGRE2, CD312) on cells; test: flow cytometry, median AF647 of live cells, OCI-AML5 WT cells, 1 hour at 37 C

T1 sequence (A0A075B6N1 22-114): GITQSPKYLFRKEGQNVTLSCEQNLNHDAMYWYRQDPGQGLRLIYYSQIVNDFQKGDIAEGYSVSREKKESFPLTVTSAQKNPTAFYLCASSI
T4 sequence (P55899 24-297 limits assumed, chain 1 of 2): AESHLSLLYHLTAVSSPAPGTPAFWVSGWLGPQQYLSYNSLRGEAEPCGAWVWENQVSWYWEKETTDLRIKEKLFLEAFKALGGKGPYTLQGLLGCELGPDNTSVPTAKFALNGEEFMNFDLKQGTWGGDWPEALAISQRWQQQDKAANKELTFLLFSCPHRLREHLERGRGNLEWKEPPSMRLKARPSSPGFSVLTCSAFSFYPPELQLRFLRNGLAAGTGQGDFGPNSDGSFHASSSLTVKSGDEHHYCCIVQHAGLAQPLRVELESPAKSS
T4 sequence (P61769 21-119 limits assumed, chain 2 of 2): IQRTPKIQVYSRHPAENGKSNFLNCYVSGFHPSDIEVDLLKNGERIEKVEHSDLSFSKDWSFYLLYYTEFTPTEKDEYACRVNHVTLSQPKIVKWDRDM

B1: EMVBB8 (EMR2 x TRBV19 bispecific antibody) (bispecific antibody, human IgG1, kappa, L234A L235A)
heavy 1: DIQMTQSPSSLSASVGDRVTITCRSSQSLVHSNRNTYLHWYQQKPGCAPKLLIYKVSNRFSGVPSRFSGSGSGTDFTLTISSLQPEDFATYYCSQSTHVPFTFGQGTKLEIKGGGSGGSGGCPPCGGSGGQVQLQESGPGLVKPSETLSLTCTVSGYSITSGYFWNWIRQFPGKGLEWMGYISYDGSNNYNPSLKSRITISRDTSKNQFSLKLSSVTAADTAVYYCASPSPGTGYAVDYWGCGTTVTVSSEPKSSDKTHTCPPCPAPEAAGGPSVFLFPPKPKDTLMISRTPEVTCVVVSVSHEDPEVKFNWYVDGVEVHNAKTKPREEQYNSTYRVVSVLTVLHQDWLNGKEYKCKVSNKALPAPIEKTISKAKGQPREPQVYTLPPSREEMTKNQVSLWCLVKGFYPSDIAVEWESNGQPENNYKTTPPVLDSDGSFFLYSKLTVDKSRWQQGNVFSCSVMHEALHNHYTQKSLSLSPGK
heavy 2: EVQLVESGGGLVQPGGSLRLSCTASGFTFSRYSMNWVRQAPGEGLEWVSYISSSSNTIYYADSVKGRFTISRDNAKNSLYLQMNSLRDEDTAVYYCARDQGTPFDYWGQGTLVTVSSASTKGPSVFPLAPSSKSTSGGTAALGCLVKDYFPEPVTVSWNSGALTSGVHTFPAVLQSSGLYSLSSVVTVPSSSLGTQTYICNVNHKPSNTKVDKKVEPKSCDKTHTCPPCPAPEAAGGPSVFLFPPKPKDTLMISRTPEVTCVVVSVSHEDPEVKFNWYVDGVEVHNAKTKPREEQYNSTYRVVSVLTVLHQDWLNGKEYKCKVSNKALPAPIEKTISKAKGQPREPQVYTLPPSREEMTKNQVSLSCAVKGFYPSDIAVEWESNGQPENNYKTTPPVLDSDGSFFLVSKLTVDKSRWQQGNVFSCSVMHEALHNRFTQKSLSLSPGK
light: EIVLTQSPSSVSASIGDRVTITCRASQDISSWLGWYQQKPGKAPKLLIYAAISLQSGVPSRFSGSESGTDFTLTISSLQPEDFATYYCHQANSFPLTFGGGTKVEIKRTVAAPSVFIFPPSDEQLKSGTASVVCLLNNFYPREAKVQWKVDNALQSGNSQESVTEQDSKDSTYSLSSTLTLSKADYEKHKVYACEVTHQGLSSPVTKSFNRGEC
notes: also called the bispecific antibody
In the case of B1, the EC50 [1] is reported as 9.5 nM, the EC50 [2] is reported as 53 nM and the Kd [3] is reported as 0.2 nM. For the same binder, the Kd [4] was 0.21 nM, the EC50 [5] was 13.1 nM and the “Max % TRV19+” value [5] was 7.72%. The EC50 [6] was 16.4 nM, the “Max (MFI)” value [6] was 400000 MFI and the EC50 [7] was 4.9 nM. For the same binder, the EC50 [8] was 10.6 nM, the Kd [9] was 306 nM and the “Cytotoxicity, EC50 (nM), 24 hours, PBMC + OCI-AML3” value [10] was 0.02 nM. For the same binder, the “Cytotoxicity, EC50 (nM), 48 hours, PBMC + OCI-AML3” value [10] was 0.01 nM, the “Cytotoxicity, EC50 (nM), 72 hours, PBMC + OCI-AML3” value [10] was 0.004 nM and the “Cytotoxicity, EC50 (nM), 96 hours, PBMC + OCI-AML3” value [10] was 0.003 nM. For the same binder, the “Cytotoxicity, EC50 (nM), 120 hours, PBMC + OCI-AML3” value [10] was 0.004 nM, the “Pan-T-cell activation (CD25), EC50 (nM), 24 hours, PBMC + OCI-AML3” value [11] was 0.02 nM and the “Pan-T-cell activation (CD25), EC50 (nM), 48 hours, PBMC + OCI-AML3” value [11] was 0.01 nM. The “Pan-T-cell activation (CD25), EC50 (nM), 72 hours, PBMC + OCI-AML3” value [11] was 0.01 nM, the “Pan-T-cell activation (CD25), EC50 (nM), 96 hours, PBMC + OCI-AML3” value [11] was 0.01 nM and the “Pan-T-cell activation (CD25), EC50 (nM), 120 hours, PBMC + OCI-AML3” value [11] was 0.01 nM. It also gave an EC50 [12] of 48 nM, an EC50 [13] of 6.2 nM and a Kd [14] of 0.154 nM. For the same binder, the Kd [15] was 0.19 nM, the EC50 [16] was 13.4 nM and the “Max (MFI)” value [16] was 260000 MFI.
